Laboratory results taken from patent publication US5972599, “High affinity nucleic acid ligands of cytokines” (NeXstar Pharmaceuticals, Inc.).

What was measured:
IFN-gamma [1] = target: T1, IFN-gamma (Homo sapiens, UniProt P01579 P01579:24-161); assay: filter; biphasic 6.8/320 nM; mPBS 1 mM Mg, 0.01% HSA, 37 C; conditions: tags: Genzyme (Cambridge MA); Upstate Biotechnology for early SELEX rounds; chain copies: 2 inferred
Experimental: (§1) The determination of equilibrium dissociation constants (Kds) for RNA pools was made subsequent to rounds 5, 8, 12, and 17 to monitor the progress of each SELEX. The Kds of RNA pools for mouse IFN-gamma (Genzyme Inc., Cambridge Mass.) were also determined after rounds 8 and 17. Kds were determined for individual ligands after cloning and sequencing of RNA pools and truncations (described below). Nitrocellulose filter binding was used to determine Kds as follows: filter discs were placed into a vacuum manifold and wetted with 5 ml of mPBS buffer. ^32P-labeled-RNA was incubated with serial dilutions of IFN-gamma in binding buffer for 5–10 min at 37° C. to allow binding to occur. […] The filter discs were dried and counted in a liquid scintillation counter (Beckmann Instruments, Palo Alto Calif.). Equilibrium dissociation constants were determined by least square fitting of the data points using the Kaleidagraph™ graphics program (Synergy Software, Reading Pa.). […] Biphasic binding constants were calculated according to standard procedures. Kds were determined by least square fitting of the data points using the Kaleidagraph™ graphics program.
(§2) The Kds of individual RNAs within each group were determined by nitrocellulose filter binding as described above. The Kds were determined using either a monophasic or biphasic least squares fit of the data.

IFN-gamma [2] = target: T1, IFN-gamma; assay: filter; biphasic 4.4/716 nM; conditions: tags: Genzyme (Cambridge MA); Upstate Biotechnology for early SELEX rounds; chain copies: 2 inferred
Experimental: as §1, §2

IFN-gamma [3] = target: T1, IFN-gamma; assay: filter; truncate; conditions: tags: Genzyme (Cambridge MA); Upstate Biotechnology for early SELEX rounds; chain copies: 2 inferred
TNF-alpha [4] = target: T2, TNF-alpha (Homo sapiens, UniProt P01375 P01375:77-233); assay: filter; DPBS; class I; conditions: tags: Genzyme or R&D Systems; chain copies: 3 inferred
T2 sequence (P01375 77-233, one chain of several): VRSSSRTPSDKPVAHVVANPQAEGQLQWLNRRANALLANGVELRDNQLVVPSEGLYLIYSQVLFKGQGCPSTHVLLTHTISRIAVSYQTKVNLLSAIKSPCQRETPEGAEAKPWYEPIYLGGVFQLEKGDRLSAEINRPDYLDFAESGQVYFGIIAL

TNF-alpha [5] = target: T2, TNF-alpha; assay: competition; 125I-hTNFa binding to U937 cells, 4 C; conditions: tags: Genzyme or R&D Systems; chain copies: 3 inferred
Experimental: (§3) A receptor binding competition assay was used to determine the bioactivity of the RNA ligands. ^125I labelled hTNFα at 0.1 nM was incubated in 50 µl of binding medium (PBS with 0.5 mM Mg^++, 0.2% BSA, 0.02% sodium azide, 1 U/µl RNasin) for 15 min at 4° C. with serially diluted competitors at 10^-4 to 10^-11 M, and 1×10^4/µl U937 cells. Duplicate aliquots were subsequently removed, centrifuged through 2:1 dibutyl-phthalate:dinonyl-phthalate mixture to separate free and bound ^125I labelled hTNFα, and the radioactivity in the pellet was measured on a gamma counter. Nonspecific binding was determined by inclusion of a 200-fold molar excess of unlabeled TNF.

TNF-alpha [6] = target: T2, TNF-alpha; assay: filter; class I; conditions: tags: Genzyme or R&D Systems; chain copies: 3 inferred
TNF-alpha [7] = target: T2, TNF-alpha; assay: competition; U937 cells; 3 points; conditions: tags: Genzyme or R&D Systems; chain copies: 3 inferred
Experimental: as §3

TNF-alpha [8] = target: T2, TNF-alpha; assay: filter; class II; conditions: tags: Genzyme or R&D Systems; chain copies: 3 inferred
TNF-alpha [9] = target: T2, TNF-alpha; assay: competition; U937 cells; conditions: tags: Genzyme or R&D Systems; chain copies: 3 inferred
Experimental: as §3

TNF-alpha [10] = target: T2, TNF-alpha; assay: filter; orphan; conditions: tags: Genzyme or R&D Systems; chain copies: 3 inferred
TNF-alpha [11] = target: T2, TNF-alpha; assay: filter; 2'F version; conditions: tags: Genzyme or R&D Systems; chain copies: 3 inferred
TNF-alpha [12] = target: T2, TNF-alpha; assay: competition; U937 cells; 2'F version; conditions: tags: Genzyme or R&D Systems; chain copies: 3 inferred
Experimental: as §3

IFN-gamma [13] = target: T1, IFN-gamma; assay: filter; full-length; conditions: tags: Genzyme (Cambridge MA); Upstate Biotechnology for early SELEX rounds; chain copies: 2 inferred
Experimental: as §1, §2

IL-4 [14] = target: T3, IL-4 (Homo sapiens, UniProt P05112 P05112:25-153); assay: filter; full-length; conditions: tags: R&D Systems
T3 sequence (P05112 25-153, one chain of several): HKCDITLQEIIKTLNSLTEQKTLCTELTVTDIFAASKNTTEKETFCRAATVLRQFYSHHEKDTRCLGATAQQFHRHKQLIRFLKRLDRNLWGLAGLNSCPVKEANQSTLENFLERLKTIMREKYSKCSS

IL-4 [15] = target: T3, IL-4; assay: competition; 0.7 nM 125I-IL-4, H-9 cells; conditions: tags: R&D Systems
Experimental: Following incubation, the tubes were spun (150×g, 5 min, 4° C.) and the supernatant was aspirated. The cell pellet was resuspended in 200 μl RPMI-HSA. 100 μl aliquots were centrifuged through a cushion of an equal volume of phthalate oils (dibutyl/dioctyl, 1:1 v/v). The tube was rapidly frozen in dry ice/ethanol and the tip containing the cell pellet was cut off and placed in a vial for gamma counting.

IFN-gamma [16] = target: T1, IFN-gamma; assay: filter; biphasic 3.2/314 nM; conditions: tags: Genzyme (Cambridge MA); Upstate Biotechnology for early SELEX rounds; chain copies: 2 inferred
Experimental: as §1, §2

IL-4 [17] = target: T3, IL-4; assay: filter; full-length; mPBS 1 mM Mg, 0.01% HSA, 37 C; conditions: tags: R&D Systems
IL-4 [18] = target: T3, IL-4; assay: filter; truncate; conditions: tags: R&D Systems
IFN-gamma [19] = target: T1, IFN-gamma; assay: filter; biphasic 9.3/232 nM; conditions: tags: Genzyme (Cambridge MA); Upstate Biotechnology for early SELEX rounds; chain copies: 2 inferred
Experimental: as §1, §2

IFN-gamma [20] = target: T1, IFN-gamma; assay: filter; biphasic 8.8/384 nM; conditions: tags: Genzyme (Cambridge MA); Upstate Biotechnology for early SELEX rounds; chain copies: 2 inferred
Experimental: as §1, §2

TNF-alpha [21] = target: T2, TNF-alpha; assay: filter; class II; clone 28A printed with the same sequence but no Kd; conditions: tags: Genzyme or R&D Systems; chain copies: 3 inferred
IL-4 [22] = target: T3, IL-4; assay: filter; group 2 stated to bind IL-4; conditions: tags: R&D Systems

T1 sequence (P01579 24-161, one chain of several): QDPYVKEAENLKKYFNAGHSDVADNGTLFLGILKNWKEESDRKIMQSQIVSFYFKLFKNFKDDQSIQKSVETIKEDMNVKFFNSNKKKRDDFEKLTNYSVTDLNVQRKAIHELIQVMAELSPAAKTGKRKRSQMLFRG

B1: IFN-gamma 2'F-1 (ssRNA)
RNA: GGGAGGACGAUGCGGACACCGUUAAUCUGAGGCCCUGUCCUAUUCCUUCACGCCUCAGACGACUCGCCCGA
modifications: 2'-F all C and U
B1 gave a Kd (IFN-gamma [1]) of 6.8 nM.

B2: IFN-gamma 2'F-1 truncate (ssRNA)
RNA: GGGAGGACGAUGCGGACACCGUUAAUCUGAGGCCCUGUCCUAUUCCUUCACGCCUCAGA
modifications: 2'-F all C and U
For B2, the Kd (IFN-gamma [2]) was 4.4 nM.

For GGGAGGACGAUGCGGCAGGUAAUUACAUGAAGGUGGGUUAGGUA (ssRNA, 2'-NH2 all C and U) [IFN-gamma 2'NH2-30 truncate], the Kd (IFN-gamma [3]) was 11 nM.

B3: TNF 25A (ssRNA)
RNA: GGGAGCUCAGAAUAAACGCUCAAGGCCGCAUGCCCCUCCUAACAGCAUGCAACUUCGACAUGAGGCCCGGAUCCGGC
With B3 the Kd (TNF-alpha [4]) was 40 nM and the Ki (TNF-alpha [5]) was 21 nM.

B4: TNF 23A (ssRNA)
RNA: GGGAGCUCAGAAUAAACGCUCAACCUCAUCCUCGCACGCCAUCGCCUGAACCGUUCGACAUGAGGCCCGGAUCCGGC
B4 was tested, and the Kd (TNF-alpha [6]) was 52 nM and the Ki (TNF-alpha [7]) was about 241 nM.

B5: TNF 16C (ssRNA)
RNA: GGGAGCUCAGAAUAAACGCUCAACCUGGUGGUCGUGCGGCUGUCGCCUCAAGGUUCGACAUGAGGCCCGGAUCCGGC
Work on B5 yielded a Kd (TNF-alpha [6]) of 200 nM and a Ki (TNF-alpha [7]) of about 313 nM.

B6: TNF 14C (ssRNA)
RNA: GGGAGCUCAGAAUAAACGCUCAACGGCUUGCAGGUCGCCGAAAUGACCGCACAUUCGACAUGAGGCCCGGAUCCGGC
Work on B6 yielded a Kd (TNF-alpha [8]) of 60 nM and a Ki (TNF-alpha [9]) of 930 nM.

B7: TNF 4C (ssRNA)
RNA: GGGAGCUCAGAAUAAACGCUCAACUAGGCCCACCGUCCCUUCUAACAACGUCUUCGACAUGAGGCCCGGAUCCGGC
Binder B7 has a Kd (TNF-alpha [6]) of 92 nM and a Ki (TNF-alpha [9]) of 1200 nM.

B8: TNF 18C (ssRNA)
RNA: GGGAGCUCAGAAUAAACGCUCAAUGUCGAGUGCGAUGGAGGAGUAGGGAUGCAUUCGACAUGAGGCCCGGAUCCGGC
For B8, the Kd (TNF-alpha [10]) was 460 nM and the Ki (TNF-alpha [9]) was 2500 nM.

B9: TNF 6A (ssRNA)
RNA: GGGAGCUCAGAAUAAACGCUCAACCACUGGCUAGGAACUCGAGUACUGGGUGGUUCGACAUGAGGCCCGGAUCCGGC
Work on B9 yielded a Kd (TNF-alpha [8]) of 120 nM and a Ki (TNF-alpha [9]) of 9100 nM.

B10: TNF 6A 2'F (ssRNA)
RNA: B9 RNA
modifications: 2'-F all C and U
In the case of B10, the Kd (TNF-alpha [11]) is reported as 74 nM and the Ki (TNF-alpha [12]) is reported as 8160 nM.

B11: IFN-gamma 2'F/NH2-3 (ssRNA)
RNA: GGGAGGACGAUGCGGUUCAGAGGGUAGGUAAGUGGGAGGAAAAAUGCCGUAUCGCCUCAGACGACUCGCCCGA
modifications: 2'-F all C, 2'-NH2 all U
B11 gave a Kd (IFN-gamma [13]) of 106 nM.

B12: TNF 16C 2'F (ssRNA)
RNA: B5 RNA
modifications: 2'-F all C and U
For B12, the Kd (TNF-alpha [11]) was 123 nM and the Ki (TNF-alpha [12]) was 9190 nM.

B13: TNF 14C 2'F (ssRNA)
RNA: B6 RNA
modifications: 2'-F all C and U
B13 showed a Kd (TNF-alpha [11]) of 133 nM and a Ki (TNF-alpha [12]) of 11500 nM.

B14: TNF 23A 2'F (ssRNA)
RNA: B4 RNA
modifications: 2'-F all C and U
In the case of B14, the Kd (TNF-alpha [11]) is reported as 400 nM and the Ki (TNF-alpha [12]) is reported as 14700 nM.

B15: IL-4 2'F/NH2-9 (ssRNA)
RNA: GGGAGACAAGAAUAAACGCUCAAAGAGUGCAGGUCUGGGGCGCCACAAUUACAACGGCAAUAAUUCGACAGGAGGCUCACAACAGGC
modifications: 2'-F all C, 2'-NH2 all U
B15 showed a Kd (IL-4 [14]) of 3.3 nM and an IC50 (IL-4 [15]) of about 40 nM.

B16: IFN-gamma 2'F-6 (ssRNA)
RNA: GGGAGGACGAUGCGGUGGAGUUUUAAUCUUACUUCCUACUCUUGCUCCACUGGGUCAGACGACUCGCCCGA
modifications: 2'-F all C and U
In the case of B16, the Kd (IFN-gamma [16]) is reported as 3.2 nM.

B17: IL-4 2'F-9 (ssRNA)
RNA: GGGAGACAAGAAUAAACGCUCAAACGGCUGUAACAAACAAGGUGGGGGGCCACACAGAGCGGGUUCGACUUCGACAGGAGGCUCACAACAGGC
modifications: 2'-F all C and U
For B17, the Kd (IL-4 [17]) was 14.7 nM.

GGGAAACGGCUGUAACAAACAAGGUGGGGGGCCACACA (ssRNA, 2'-F all C and U) [IL-4 2'F-9 truncate] was tested, and the Kd (IL-4 [18]) was 18 nM.

B18: IL-4 2'NH2-29 truncate (ssRNA)
RNA: GGGACGCUCAAGAGCUGGUGAGCCACGUAUACGGCCUUAGGGGCUUGGGCG
modifications: 2'-NH2 all C and U
With B18 the Kd (IL-4 [18]) was 10 nM.

B19: IFN-gamma 2'F-16 (ssRNA)
RNA: GGGAGGACGAUGCGGCAUCCCUAGAGCAGCCAGCCGGAAAGAAGUCACGCCUGCUCAGACGACUCGCCCGA
modifications: 2'-F all C and U
With B19 the Kd (IFN-gamma [19]) was 9.3 nM.

B20: IFN-gamma 2'F-27 (ssRNA)
RNA: GGGAGGACGAUGCGGAACACCCCCGGUCUGACGCUUGUUCCGAAUUCCUCCACCGUCAGACGACUCGCCCGA
modifications: 2'-F all C and U
Work on B20 yielded a Kd (IFN-gamma [20]) of 8.8 nM.

B21: IFN-gamma 2'F-28 (ssRNA)
RNA: GGGAGGACGAUGCGGAGGGUUGGGAGGGGUCCUUCUUUUCGUCUGCGUGGACCGUCAGACGACUCGCCCGA
modifications: 2'-F all C and U
For B21, the Kd (IFN-gamma [13]) was 35 nM.

B22: TNF 4A (ssRNA)
RNA: GGGAGCUCAGAAUAAACGCUCAACGCACUCGGACGGAAUCUCCGUAGGACACGUUCGACAUGAGGCCCGGAUCCGGC
Binder B22 has a Kd (TNF-alpha [8]) of 320 nM.

B23: TNF 8C (ssRNA)
RNA: GGGAGCUCAGAAUAAACGCUCAAGUCCACACUUUGCCGAGCGUCCUAGUGUUCGACAUGAGGCCCGGAUCCGGC
Binder B23 has a Kd (TNF-alpha [21]) of 430 nM.

GGGAGGACGAUGCGGAGGGUUGGGAGGGGUCCUUCUU (ssRNA, 2'-F all C and U) [IFN-gamma 2'F-28 truncate] showed a Kd (IFN-gamma [3]) of 53 nM.

B24: IL-4 2'F/NH2-14 (ssRNA)
RNA: GGGAGACAAGAAUAAACGCUCAACAGCCAAGGGUUGGAUAGGGGGUAGGGAGCCGUAGCAGCGUUCGACAGGAGGCUCACAACAGGC
modifications: 2'-F C, 2'-NH2 U
B24: binds (IL-4 [22]).
